This note sets out measurements from paper PMC9848473, “The structure of DarB in complex with Rel^NTD reveals nonribosomal activation of Rel stringent factors” (Science Advances, 2023).

This assay deals with full-length Bacillus subtilis Rel (RelBs) (Bacillus subtilis). Put plainly: cell-based or functional assay.

B1: Bacillus subtilis DarB (natural protein, UniProt O31698 1-147, looked up)
chain: MISLQSDQLLEATVGQFMIEADKVAHVQVGNNLEHALLVLTKTGYTAIPVLDPSYRLHGLIGTNMIMNSIFGLERIEFEKLDQITVEEVMLTDIPRLHINDPIMKGFGMVINNGFVCVENDEQVFEGIFTRRVVLKELNKHIRSLNK
On to B1, for which the “rate of ^3H-ppGpp hydrolysis by RelBs saturated with DarB” value worked out at 5.5 fold.
